Wild-type TLR3 activity with the mutant and wild-type TLR3 activity (NF-kB luciferase reporter, poly(I:C) induced) with the mutant data for 7 substances are collected here from patent publication US20090142300A1.

The experiment deals with T1, wild-type Toll-like receptor 3 (TLR3), homo sapiens (homo sapiens) (UniProt O15455).
T1 sequence: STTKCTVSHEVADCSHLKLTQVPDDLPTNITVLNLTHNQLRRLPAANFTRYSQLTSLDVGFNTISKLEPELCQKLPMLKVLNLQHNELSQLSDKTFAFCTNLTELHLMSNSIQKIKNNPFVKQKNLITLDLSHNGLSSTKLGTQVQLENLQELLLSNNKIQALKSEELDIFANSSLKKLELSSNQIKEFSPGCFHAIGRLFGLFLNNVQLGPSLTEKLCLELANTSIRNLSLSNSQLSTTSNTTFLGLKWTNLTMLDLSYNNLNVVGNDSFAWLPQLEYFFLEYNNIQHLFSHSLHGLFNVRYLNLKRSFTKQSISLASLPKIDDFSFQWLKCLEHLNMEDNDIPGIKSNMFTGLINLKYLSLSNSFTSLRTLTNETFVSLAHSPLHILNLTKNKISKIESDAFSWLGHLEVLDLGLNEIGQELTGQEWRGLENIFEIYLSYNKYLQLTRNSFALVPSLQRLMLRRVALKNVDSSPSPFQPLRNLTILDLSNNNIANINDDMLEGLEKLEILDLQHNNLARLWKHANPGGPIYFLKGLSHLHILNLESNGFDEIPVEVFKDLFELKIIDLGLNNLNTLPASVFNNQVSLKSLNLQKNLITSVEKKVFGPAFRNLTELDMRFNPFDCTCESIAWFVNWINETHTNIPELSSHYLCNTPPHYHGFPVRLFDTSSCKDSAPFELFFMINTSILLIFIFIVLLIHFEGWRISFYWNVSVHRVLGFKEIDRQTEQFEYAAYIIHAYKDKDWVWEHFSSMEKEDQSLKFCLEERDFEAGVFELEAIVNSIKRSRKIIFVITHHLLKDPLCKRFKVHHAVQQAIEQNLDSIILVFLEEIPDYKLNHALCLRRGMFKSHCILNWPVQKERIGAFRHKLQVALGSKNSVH
Put plainly: cell-based or functional assay.

For “K467EΔTIR, TLR3 mutant K467E lacking the TIR domain (from UniProt O15455 24-753) (receptor)”, the wild-type TLR3 activity with the mutant at six fold molar excess (dominant negative assay) turned out to be 27%.
In turn, “TLR3 mutant C37A (from UniProt O15455 24-904) (receptor)” yielded a wild-type TLR3 activity with the mutant at six molar excess of WT (dominant negative assay) of 61%.
Take “TLR3 mutant C696A (from UniProt O15455 24-904) (receptor)”: the wild-type TLR3 activity with the mutant at six molar excess of WT (dominant negative assay) worked out at 76%.
As to “TLR3 mutant E442K (from UniProt O15455 24-904) (receptor)”, the wild-type TLR3 activity with the mutant at six molar excess to the WT (dominant negative assay) is 51%.
“TLR3 mutant H539E (from UniProt O15455 24-904) (receptor)”: the wild-type TLR3 activity with the mutant at six molar excess of WT (dominant negative assay) was 16%.
The substance “TLR3 mutant N466A (from UniProt O15455 24-904) (receptor)” came in with a wild-type TLR3 activity with the mutant at six molar excess of WT (dominant negative assay) of 17%.
In turn, “ΔTIR, dominant negative version of TLR3 that lacks the TIR domain (from UniProt O15455 24-753) (receptor)” came in with a wild-type TLR3 activity (NF-kB luciferase reporter, poly(I:C) induced) with the mutant at 2-fold molar excess, relative to empty vector of 26%; a wild-type TLR3 activity (NF-kB luciferase reporter, poly(I:C) induced) with the mutant at 6-fold molar excess, relative to empty vector of 12%; a wild-type TLR3 activity with the mutant at six molar excess of WT (dominant negative assay) of 14%.
